Consider 131 substances from the supplement of paper PMC12042874.

± gives the uncertainty stated by the source.

The data set in a line: amyloid nucleation score (Sup35N fusion, yeast selection) (log enrichment); library NNK3; higher = more nucleation; inactive = no reads after selection. The method in brief:
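The nucleation score is a DiMSum log enrichment of output over input reads, centred on the mode score of non-aggregating sequences. Sequences under 100 input reads were excluded, and reads came from Illumina sequencing of plasmid inserts. Psi-negative yeast expressing Sup35N fused to peptides of 20 random codons were induced with 100 μM copper sulfate for 24 hours and grown 7 days at 30°C on medium lacking adenine and uracil. Random libraries had three technical output replicates.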
As for SEYLVMLTGWVTTHLQMLWV, the amyloid nucleation score entry was “inactive”.

Regarding IKSCGVNNIAFLQVCHRWCS, the amyloid nucleation score was 1.6 ± 0.082.

Regarding FSGSTSLCLMMRYTSTVR, the amyloid nucleation score amounted to 0.359 ± 0.25. As for MGQFVRYLMADSCL, the amyloid nucleation score result was “inactive”. LYMKSTKLVLTKRDISTFRC: the amyloid nucleation score came to 1.11 ± 0.14.

In the case of RDDGEALVTSARRVQTSYPA, the amyloid nucleation score is -0.145 ± 0.93.

IVYPFSGLMPDGAFRKEFDA: the amyloid nucleation score result is “inactive”. The value for SVMLDNTVVFTIRSGHCSES was 1.13 ± 0.1; that for LNAMWAWSRLDCNWGIQRNR was “inactive”. Take YRRYPVIR: the amyloid nucleation score result is “inactive”. As for FSFITLMVTLSSVKIGEIWW, the amyloid nucleation score entry was “inactive”.

As to RLATREDHAHLLDHACLVG, the amyloid nucleation score entry was “inactive”. As for VSSFFSLPCTSAPVIDWVGV, the amyloid nucleation score result is “inactive”. Under SYFSYPCCCCVVARFLNYVC stands “inactive”. As to NQQWISTRVVLKAPAFERRT, the amyloid nucleation score result is “inactive”. For the substance TNAFRLVLTNMKI, the amyloid nucleation score entry was “inactive”. As for RSILRNSLSTQMHIGSVSLM, the amyloid nucleation score result was “inactive”. As to SLKSNTVCDNL, the amyloid nucleation score result is “inactive”. Take ARATALAVFCIGTDYGSIES: the amyloid nucleation score is -0.319 ± 0.37. With VRHGSMTDCYFLHTLDRREC, the amyloid nucleation score entry was “inactive”. LYAINLWLAVFYRLQQFMDV: the amyloid nucleation score result is “inactive”. As to VEVMSGDEMWCLWLEFPSFE, the amyloid nucleation score entry was “inactive”. For VVSFNPIKCIVCGV, the amyloid nucleation score result was “inactive”.

For the substance TYYSLVF, the amyloid nucleation score result was “inactive”. As to ITAVVVSDMYH, the amyloid nucleation score result was “inactive”.

On to FTNFCS, for which the amyloid nucleation score entry is “inactive”. With SGITIEF, the amyloid nucleation score entry is “inactive”. Turning to SYCHRRLLSRVSLLVASSVK, the amyloid nucleation score result was “inactive”.

For NMYWSISDRFRIV, the amyloid nucleation score amounted to 0.424 ± 0.71. On to YTERYS, for which the amyloid nucleation score was -0.265 ± 0.96. For ERRRVRP, the amyloid nucleation score result is “inactive”. MISICCGIPCLFIFWFRASA: the amyloid nucleation score result is “inactive”.

In the case of IVDASGQRAMGSDFIHVLHR, the amyloid nucleation score entry was “inactive”. For NVLCSFYLMYGLTSAWSVS, the amyloid nucleation score result was “inactive”. In the case of PFWVTVYMDILLVKQQPLSV, the amyloid nucleation score entry was “inactive”.

As to IIRALARFLVNVGV, the amyloid nucleation score entry is “inactive”. The value for VAPLANHKASRDSYAYVSGS was “inactive”; that for FVLFGGWLPRVQRLSLGTGR was “inactive”. As for TRPLSDPVLINVYWRETSYP, the amyloid nucleation score is -0.33 ± 0.47. The value for VIANVKIMTFFMAFSAVHTM was 1.48 ± 0.13; that for VVSAV was “inactive”. For FDWIE, the amyloid nucleation score result is “inactive”. Turning to LSSTV, the amyloid nucleation score entry is “inactive”. Consider GAMCIRWEG, for which the amyloid nucleation score result is “inactive”. For GTALLRFGIVGPNDLVRLCC, the amyloid nucleation score entry was “inactive”. On to MLVASGDTAENYSTSVYCV, for which the amyloid nucleation score result is “inactive”. For SKSFVYPVNVCRRWLAVLGN, the amyloid nucleation score entry was “inactive”. Turning to NSTNMDSFGIPLNRILWMLN, the amyloid nucleation score result was “inactive”.

Take WGVHCMSQDVRVWWLSLWGG: the amyloid nucleation score result is “inactive”. On to LFLYQLLSGHC, for which the amyloid nucleation score result is “inactive”.

Consider HSVIVVCVFSYELFEFHSAV, for which the amyloid nucleation score entry is “inactive”.

Regarding RSGWCHLPQVRNMWTVIIDG, the amyloid nucleation score was -0.648 ± 1.1.

RKERGSVFGSIWQFSCIRR returned an amyloid nucleation score of 0.731 ± 0.25.

For the substance VGTFWGFTIPSWYSVVVEVC, the amyloid nucleation score result was “inactive”. For PLSPFYAAWDYMILCVG, the amyloid nucleation score result was “inactive”. Regarding TTGLISSNGVTG, the amyloid nucleation score result is “inactive”. With SFIRASKVCFDSHGCWFGLG, the amyloid nucleation score entry was “inactive”.

Turning to ICEQKEFPYVEQWLD, the amyloid nucleation score result was “inactive”. For the substance RVIDQMNPQGGWDLTFDSRR, the amyloid nucleation score entry is “inactive”. As for VGLAVVSLLSNRRNEDELCF, the amyloid nucleation score result is “inactive”. In the case of NPECVGDAWTVVVDYTSLWE, the amyloid nucleation score result is “inactive”. IISQAQFSVAYLLCWRQCYV gave an amyloid nucleation score of 1.2 ± 0.082. On to SFYVLIVQRCELMSVVVMES, for which the amyloid nucleation score entry was “inactive”. As to YKLNMLLGYLLMFTLGIHAV, the amyloid nucleation score entry was “inactive”. As for SAYTNANGLNVSLFLMHHAC, the amyloid nucleation score entry was “inactive”. On to SMCKDFSAACESICGIPVGY, for which the amyloid nucleation score result was “inactive”.

AQAVHAEVVQFILYFGESPL returned an amyloid nucleation score of 2.47 ± 0.08. The value for LRNVYTRVEITQLLTRTSGS was “inactive”; that for HCLSHTLQHNHTMISANSRS was “inactive”. The value for RLHFCVGPMAPYSMEQSQ was “inactive”; that for FRNLSDVLVRLFPVQLLSYP was “inactive”. For IFNGRDNLQLDVWLGGYFLV, the amyloid nucleation score entry was “inactive”. Turning to HARFNVRNN, the amyloid nucleation score result was “inactive”.

As for GGSLGHSRLSKDVSVEESAW, the amyloid nucleation score result was “inactive”.

Turning to VDVDPVSSD, the amyloid nucleation score result is “inactive”. For the substance VRVVVISPGRSCRVNPSDSP, the amyloid nucleation score entry is “inactive”. As for RTLYMLRIALGHGPVTLEI, the amyloid nucleation score entry is “inactive”. On to ALLFHLG, for which the amyloid nucleation score result was “inactive”. As for YYALKYVNLQLNKRNVTRWV, the amyloid nucleation score entry was “inactive”. For DSCAIES, the amyloid nucleation score result is “inactive”. On to YVCCHERWVGFYSGK, for which the amyloid nucleation score result is “inactive”. In the case of SGFYNWI, the amyloid nucleation score entry is “inactive”.

On to IQWFRQCSFRCSNHYSSAFK, for which the amyloid nucleation score was found to be 1.44 ± 0.14.

For NLWTTGIRTSPKNLYIVAFM, the amyloid nucleation score entry is “inactive”. IAVDFRYCYDYGSNSSCRLA gave an amyloid nucleation score of 1.88 ± 0.11. Consider LFYMLPIIVFAPVLMAWLSF, for which the amyloid nucleation score entry was “inactive”. Turning to NRFYVD, the amyloid nucleation score result was “inactive”.

As for VFYELAYFSNNQTDQWVLD, the amyloid nucleation score entry is “inactive”. The value for YSRDIYVLEHV was “inactive”.

Regarding QVKLGRTLTSGQGFTQLHSV, the amyloid nucleation score is -0.852 ± 2.5.

Regarding NSGYRWEKSLSWMALLGYGC, the amyloid nucleation score was -0.788 ± 1.1. For MHYMRFLWSGLLWASVETFV, the amyloid nucleation score result was “inactive”. The value for VKSVLFDGKL was “inactive”. Regarding PCILPKRTRIIVR, the amyloid nucleation score entry is “inactive”.

As for MCSPYFMSTSNTIFQSTRYG, the amyloid nucleation score amounted to 1.12 ± 0.12. Regarding WVCYNKFSVCVWLVDKAD, the amyloid nucleation score came to 2.01 ± 0.095. The value for KINVD was “inactive”. On to KFMCSNAF, for which the amyloid nucleation score entry is “inactive”. Consider TSTDVQVGYVNMLLLRVLFF, for which the amyloid nucleation score entry is “inactive”.

Consider THLFRYKTASTDGCNESKAV, for which the amyloid nucleation score result was “inactive”. Under YDMTRHLYVSSPEIVKPY stands “inactive”; under LNCDIVFELL, “inactive”; under LWIWR, -0.43 ± 0.7.

On to DRKLLYY, for which the amyloid nucleation score result was “inactive”. YSVDGICTRAVLGPVDWVNG: the amyloid nucleation score result is “inactive”. SLWMFCYSDSYRCKDNFLRN: the amyloid nucleation score result was “inactive”.

For FMINSNNRFGISRRTLMSLT, the amyloid nucleation score entry was “inactive”. Regarding GDNHSQD, the amyloid nucleation score came to 0.37 ± 0.16.

In the case of MPEVCDLMDHIICVCYGYID, the amyloid nucleation score result is “inactive”.

Consider FLMVGKISKMFKQYNLLFH, for which the amyloid nucleation score entry was “inactive”. Take FLDVFLEFSILIFPSVTFKC: the amyloid nucleation score result is “inactive”. For VYGYELRCDLKGMLLS, the amyloid nucleation score result was “inactive”. Under MVGWVWERMRHAPWE stands “inactive”; under HGGMVSMGGNKQ, “inactive”; under LLIIVYLVWCALIRRGTQPR, “inactive”. In the case of CWIAMCGVVFNDLRMS, the amyloid nucleation score stood at 2.81 ± 0.071. Under FTYVNSHECWLVKDMVAYFL stands 3 ± 0.073; under GVLTTALVGTCWPSTCFYGL, “inactive”.

With VRVSLDRTGYKSSCHVVSRG, the amyloid nucleation score entry was “inactive”. On to NMNSISYSQPIFRSRTRRRM, for which the amyloid nucleation score result is “inactive”. Consider LARVFASTGSSCSRSMNAMN, for which the amyloid nucleation score entry is “inactive”. Under FILNRLTRIIWDF stands “inactive”; under RFMWSLGSTLRWKAWADVTG, “inactive”. For the substance NSETRRIHSKVKLMLIVRLA, the amyloid nucleation score entry was “inactive”. Substance MSVRGHSSTVVYLCREPGLK displayed an amyloid nucleation score of 0.402 ± 0.38.

In turn, IDFRFFQPQAVCGNLSCYRE showed an amyloid nucleation score of 0.227 ± 0.23. In the case of MTLWDWDYRLIVRIQLRSTQ, the amyloid nucleation score entry was “inactive”. Consider MSMYVTSF, for which the amyloid nucleation score result was “inactive”. The value for IIKDLPVCVDERASYAEVMS was “inactive”. The value for WEKYMRMSGRPMGRFKMTGR was “inactive”.

Regarding SSNLDTTVCFPVCSAPELEG, the amyloid nucleation score entry is “inactive”.
